Measured values taken from US20230295335A1 (published 2023).

T1: FcγRIIa-H131 (human, UniProt P12318 34-218, limits assumed)
T1 construct: Bought His-tagged protein; also called CD32A Protein, Human, Recombinant (167 His, His Tag)
T1 sequence (looked up): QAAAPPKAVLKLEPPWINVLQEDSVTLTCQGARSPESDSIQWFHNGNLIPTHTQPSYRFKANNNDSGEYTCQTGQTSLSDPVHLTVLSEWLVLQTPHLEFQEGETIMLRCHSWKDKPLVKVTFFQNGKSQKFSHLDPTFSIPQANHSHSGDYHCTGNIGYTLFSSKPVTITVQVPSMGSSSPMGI

T2: FcγRIIa-R131 (human, UniProt P12318 34-218, limits assumed)
T2 construct: Bought His-tagged protein; also called CD32A Protein, Human, Recombinant (167 Arg, His & AVI Tag)
T2 sequence (looked up): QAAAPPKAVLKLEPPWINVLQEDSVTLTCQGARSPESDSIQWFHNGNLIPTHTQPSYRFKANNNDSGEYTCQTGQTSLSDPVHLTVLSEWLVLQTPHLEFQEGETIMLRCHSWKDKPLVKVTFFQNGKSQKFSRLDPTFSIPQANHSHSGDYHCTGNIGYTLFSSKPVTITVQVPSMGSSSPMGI

T3: FcγRIIb (human, UniProt P31994 43-217, limits assumed)
T3 construct: Bought His-tagged protein; also called CD32B/Fcgr2b Protein, Human, Recombinant (His & AVI Tag)
T3 sequence (looked up): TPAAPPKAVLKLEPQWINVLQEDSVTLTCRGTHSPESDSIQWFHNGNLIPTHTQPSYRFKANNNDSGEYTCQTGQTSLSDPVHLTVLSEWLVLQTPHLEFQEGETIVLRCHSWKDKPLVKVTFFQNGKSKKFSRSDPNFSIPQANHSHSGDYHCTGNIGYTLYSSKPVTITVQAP

T4: full length human EpCAM on cells (human, UniProt P16422 24-314)
T4 construct: the cell line is named under assay; also called EpCAM on DiFi, HPAF-II and A549 tumor cells; CHO-S cells transfected with full length human EpCAM
T4 sequence: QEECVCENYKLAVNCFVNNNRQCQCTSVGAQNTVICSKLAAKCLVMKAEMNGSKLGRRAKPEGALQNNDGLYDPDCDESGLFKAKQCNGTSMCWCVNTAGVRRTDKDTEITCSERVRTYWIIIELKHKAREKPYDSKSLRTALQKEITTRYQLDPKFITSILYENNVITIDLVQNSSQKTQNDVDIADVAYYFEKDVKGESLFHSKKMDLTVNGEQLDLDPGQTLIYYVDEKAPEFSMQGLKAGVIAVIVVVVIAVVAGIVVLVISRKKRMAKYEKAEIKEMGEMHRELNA


Key:
FcγRIa = target: T5, FcγRIa (human, UniProt P12314 16-288, limits assumed, biotinylated); test: SPR (Biacore 8K); His-tagged FcγR captured on anti-His chip
T5 construct: Bought His-tagged protein captured on anti-His chip; also called CD64 Protein, Human, Recombinant (His Tag), Biotinylated
Protocol: (§1) At the end of each cycle, the surface was regenerated using 10 mM Glycine-HCl pH 1.5 (Cytiva, cat. no. BR100354).

FcγRIIa-H131 = target: T1, FcγRIIa-H131; test: as above
Protocol: as §1

FcγRIIa-R131 = target: T2, FcγRIIa-R131; test: as above
Protocol: as §1

FcγRIIb = target: T3, FcγRIIb; test: as above
Protocol: as §1

FcγRIIIa-F158 = target: T6, FcγRIIIa-F158 (human, UniProt P08637 17-208); test: as above
T6 construct: extracellular domain; Bought His-tagged protein
Protocol: as §1

FcγRIIIa-V158 = target: T7, FcγRIIIa-V158 (human, UniProt P08637 17-208); test: as above
T7 construct: Bought His-tagged protein
Protocol: as §1

[1] = target: T8, neonatal Fc receptor (FcRn), His-tagged (SinoBiological, cat. no. CT009-H08H-B) (UniProt P55899 24-297); test: SPR kinetics assay at pH 6.0; His-tagged FcRn captured on anti-His chip, antibody 0-500 nM
Protocol: (§2) In a separate experiment, binding to neonatal Fc receptor (FcRn) was tested by SPR, using a kinetics assay with the following changes to the methods described above. […] Experiments were performed three times at pH 6.0 (under acidic conditions, at which IgG binds to FcRn) and two times at pH 7.4 (binding to IgG is not expected at this pH).

[2] = target: T8, neonatal Fc receptor (FcRn), His-tagged …; test: SPR kinetics assay at pH 6.0; His-tagged FcRn captured on anti-His chip, antibody 0-500 nM; mean of three experiments
Protocol: as §2

[3] = target: T4, full length human EpCAM on cells; test: flow cytometry on DiFi tumor cells
Protocol: Binding to the EpCAM-expressing human tumor cell lines DiFi, HPAF-II and A549 by bivalent EpCAM antibodies or bispecific antibodies carrying one EpCAM-binding arm was analyzed by flow cytometry. […] Next, cells were washed once (A-D) or twice (E) in FACS buffer, re-suspended in 100 μL FACS buffer and analyzed on a BD LSRFortessa FACS (BD Biosciences, USA), Celesta (BD Biosciences, USA) or iQue (Sartorius, Germany). Binding curves were analyzed using non-linear regression (sigmoidal dose-response with variable slope) using GraphPad Prism V7.02 software (GraphPad Software, San Diego, CA, USA).

T8 sequence (P55899 24-297 limits assumed, form in doubt): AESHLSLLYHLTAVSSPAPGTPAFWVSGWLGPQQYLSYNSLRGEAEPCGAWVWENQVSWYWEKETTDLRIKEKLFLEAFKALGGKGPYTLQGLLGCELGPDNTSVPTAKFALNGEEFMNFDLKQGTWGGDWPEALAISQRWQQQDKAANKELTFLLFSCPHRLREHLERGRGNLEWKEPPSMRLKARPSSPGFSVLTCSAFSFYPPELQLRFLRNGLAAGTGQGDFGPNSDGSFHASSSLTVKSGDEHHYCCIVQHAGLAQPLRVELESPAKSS
T7 sequence (P08637 17-208 F176V limits assumed): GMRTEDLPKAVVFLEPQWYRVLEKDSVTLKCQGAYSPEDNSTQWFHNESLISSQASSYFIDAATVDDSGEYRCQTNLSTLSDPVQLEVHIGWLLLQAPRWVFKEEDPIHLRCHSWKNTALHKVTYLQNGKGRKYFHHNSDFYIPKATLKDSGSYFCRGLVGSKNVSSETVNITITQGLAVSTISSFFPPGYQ
T5 sequence (P12314 16-288 limits assumed): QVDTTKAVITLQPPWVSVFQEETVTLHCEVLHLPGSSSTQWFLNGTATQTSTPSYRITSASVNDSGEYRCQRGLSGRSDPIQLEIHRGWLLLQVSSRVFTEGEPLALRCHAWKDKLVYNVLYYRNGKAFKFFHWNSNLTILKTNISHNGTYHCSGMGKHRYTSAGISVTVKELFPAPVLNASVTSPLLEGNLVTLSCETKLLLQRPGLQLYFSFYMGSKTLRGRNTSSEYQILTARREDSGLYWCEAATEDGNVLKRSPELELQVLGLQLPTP
T6 sequence (P08637 17-208): as the sequence (P08637 17-208 F176V limits assumed) above, with V160F counted along it

Binder	binding result (FcγRIa)	binding result (FcγRIIa-H131)	binding result (FcγRIIa-R131)	binding result (FcγRIIb)	binding result (FcγRIIIa-F158)	binding result (FcγRIIIa-V158)	koff [1]	kon [1]	Kd [2]	binding result [3]
IgG1-EpCAM-A37-FERL (antibody) heavy: not shown light: EIELTQSPGTLSLSPGERATLSCRASQTISNNYLAWYQQKRGQAPRLLIYAASSRATGIPDRFSGTGSGTDFTLTISRLEPEDFAVYYCAQGELYPRQFGGGTKLEIKRTVAAPSVFIFPPSDEQLKSGTASVVCLLNNFYPREAKVQWKVDNALQSGNSQESVTEQDSKDSTYSLSSTLTLSKADYEKHKVYACEVTHQGLSSPVTKSFNRGEC	no binding (tested: 3,000 nM (highest concentration tested))	no binding (tested: 10,000 nM (highest concentration tested))	no binding (tested: 10,000 nM (highest concentration tested))	no binding (tested: 10,000 nM (highest concentration tested))	no binding (tested: 10,000 nM (highest concentration tested))	no binding (tested: 10,000 nM (highest concentration tested))	0.0413 s⁻¹	180000 M⁻¹ s⁻¹	230 nM	
IgG1-CD137-009-HC7LC2-FEAR (antibody) heavy: EVQLVESGGGLVQPGRSLRLSCTASGFSLNDYWMSWVRQAPGKGLEWVGYIDVGGSLYYAASVKGRFTISRDDSKSIAYLQMNSLKTEDTAVYYCARGGLTYGFDLWGQGTLVTVSSASTKGPSVFPLAPSSKSTSGGTAALGCLVKDYFPEPVTVSWNSGALTSGVHTFPAVLQSSGLYSLSSVVTVPSSSLGTQTYICNVNHKPSNTKVDKRVEPKSCDKTHTCPPCPAPEFEGGPSVFLFPPKPKDTLMISRTPEVTCVVVAVSHEDPEVKFNWYVDGVEVHNAKTKPREEQYNSTYRVVSVLTVLHQDWLNGKEYKCKVSNKALPAPIEKTISKAKGQPREPQVYTLPPSREEMTKNQVSLTCLVKGFYPSDIAVEWESNGQPENNYKTTPPVLDSDGSFFLYSRLTVDKSRWQQGNVFSCSVMHEALHNHYTQKSLSLSPG light: DIVMTQSPSSLSASVGDRVTITCQASEDISSYLAWYQQKPGKAPKRLIYGASDLASGVPSRFSASGSGTDYTFTISSLQPEDIATYYCHYYATISGLGVAFGGGTKVEIKRTVAAPSVFIFPPSDEQLKSGTASVVCLLNNFYPREAKVQWKVDNALQSGNSQESVTEQDSKDSTYSLSSTLTLSKADYEKHKVYACEVTHQGLSSPVTKSFNRGEC	no binding (tested: 3,000 nM (highest concentration tested))	no binding (tested: 10,000 nM (highest concentration tested))	no binding (tested: 10,000 nM (highest concentration tested))	no binding (tested: 10,000 nM (highest concentration tested))	no binding (tested: 10,000 nM (highest concentration tested))	no binding (tested: 10,000 nM (highest concentration tested))	0.0539 s⁻¹	143000 M⁻¹ s⁻¹	375 nM	
bsIgG1-b12-FERL/CD137-009-HC7LC2-FEAR (bispecific antibody, also called bsIgG1-b12-FERL/CD137-HC7LC2-FEAR; bsIgG1-b12-FERLxCD137-009-HC7LC2-FEAR) heavy 1: QVQLVQSGAEVKKPGASVKVSCQASGYRFSNFVIHWVRQAPGQRFEWMGWINPYNGNKEFSAKFQDRVTFTADTSANTAYMELRSLRSADTAVYYCARVGPYSWDDSPQDNYYMDVWGKGTTVIVSSASTKGPSVFPLAPSSKSTSGGTAALGCLVKDYFPEPVTVSWNSGALTSGVHTFPAVLQSSGLYSLSSVVTVPSSSLGTQTYICNVNHKPSNTKVDKRVEPKSCDKTHTCPPCPAPEFERGPSVFLFPPKPKDTLMISRTPEVTCVVVDVSHEDPEVKFNWYVDGVEVHNAKTKPREEQYNSTYRVVSVLTVLHQDWLNGKEYKCKVSNKALPAPIEKTISKAKGQPREPQVYTLPPSREEMTKNQVSLTCLVKGFYPSDIAVEWESNGQPENNYKTTPPVLDSDGSFLLYSKLTVDKSRWQQGNVFSCSVMHEALHNHYTQKSLSLSPG light 1: EIVLTQSPGTLSLSPGERATFSCRSSHSIRSRRVAWYQHKPGQAPRLVIHGVSNRASGISDRFSGSGSGTDFTLTITRVEPEDFALYYCQVYGASSYTFGQGTKLERKRTVAAPSVFIFPPSDEQLKSGTASVVCLLNNFYPREAKVQWKVDNALQSGNSQESVTEQDSKDSTYSLSSTLTLSKADYEKHKVYACEVTHQGLSSPVTKSFNRGEC heavy 2: EVQLVESGGGLVQPGRSLRLSCTASGFSLNDYWMSWVRQAPGKGLEWVGYIDVGGSLYYAASVKGRFTISRDDSKSIAYLQMNSLKTEDTAVYYCARGGLTYGFDLWGQGTLVTVSSASTKGPSVFPLAPSSKSTSGGTAALGCLVKDYFPEPVTVSWNSGALTSGVHTFPAVLQSSGLYSLSSVVTVPSSSLGTQTYICNVNHKPSNTKVDKRVEPKSCDKTHTCPPCPAPEFEGGPSVFLFPPKPKDTLMISRTPEVTCVVVAVSHEDPEVKFNWYVDGVEVHNAKTKPREEQYNSTYRVVSVLTVLHQDWLNGKEYKCKVSNKALPAPIEKTISKAKGQPREPQVYTLPPSREEMTKNQVSLTCLVKGFYPSDIAVEWESNGQPENNYKTTPPVLDSDGSFFLYSRLTVDKSRWQQGNVFSCSVMHEALHNHYTQKSLSLSPG light 2: DIVMTQSPSSLSASVGDRVTITCQASEDISSYLAWYQQKPGKAPKRLIYGASDLASGVPSRFSASGSGTDYTFTISSLQPEDIATYYCHYYATISGLGVAFGGGTKVEIKRTVAAPSVFIFPPSDEQLKSGTASVVCLLNNFYPREAKVQWKVDNALQSGNSQESVTEQDSKDSTYSLSSTLTLSKADYEKHKVYACEVTHQGLSSPVTKSFNRGEC										no binding (tested: up to 30 µg/mL)
bsIgG1-b12-FERL/b12-FEAR (bispecific antibody, also called b12-FERLxb12-FEAR; bsIgG1-ctrl-b12-FERL/b12-FEAR) heavy 1: QVQLVQSGAEVKKPGASVKVSCQASGYRFSNFVIHWVRQAPGQRFEWMGWINPYNGNKEFSAKFQDRVTFTADTSANTAYMELRSLRSADTAVYYCARVGPYSWDDSPQDNYYMDVWGKGTTVIVSSASTKGPSVFPLAPSSKSTSGGTAALGCLVKDYFPEPVTVSWNSGALTSGVHTFPAVLQSSGLYSLSSVVTVPSSSLGTQTYICNVNHKPSNTKVDKRVEPKSCDKTHTCPPCPAPEFERGPSVFLFPPKPKDTLMISRTPEVTCVVVDVSHEDPEVKFNWYVDGVEVHNAKTKPREEQYNSTYRVVSVLTVLHQDWLNGKEYKCKVSNKALPAPIEKTISKAKGQPREPQVYTLPPSREEMTKNQVSLTCLVKGFYPSDIAVEWESNGQPENNYKTTPPVLDSDGSFLLYSKLTVDKSRWQQGNVFSCSVMHEALHNHYTQKSLSLSPG heavy 2: QVQLVQSGAEVKKPGASVKVSCQASGYRFSNFVIHWVRQAPGQRFEWMGWINPYNGNKEFSAKFQDRVTFTADTSANTAYMELRSLRSADTAVYYCARVGPYSWDDSPQDNYYMDVWGKGTTVIVSSASTKGPSVFPLAPSSKSTSGGTAALGCLVKDYFPEPVTVSWNSGALTSGVHTFPAVLQSSGLYSLSSVVTVPSSSLGTQTYICNVNHKPSNTKVDKRVEPKSCDKTHTCPPCPAPEFEGGPSVFLFPPKPKDTLMISRTPEVTCVVVAVSHEDPEVKFNWYVDGVEVHNAKTKPREEQYNSTYRVVSVLTVLHQDWLNGKEYKCKVSNKALPAPIEKTISKAKGQPREPQVYTLPPSREEMTKNQVSLTCLVKGFYPSDIAVEWESNGQPENNYKTTPPVLDSDGSFFLYSRLTVDKSRWQQGNVFSCSVMHEALHNHYTQKSLSLSPG light: EIVLTQSPGTLSLSPGERATFSCRSSHSIRSRRVAWYQHKPGQAPRLVIHGVSNRASGISDRFSGSGSGTDFTLTITRVEPEDFALYYCQVYGASSYTFGQGTKLERKRTVAAPSVFIFPPSDEQLKSGTASVVCLLNNFYPREAKVQWKVDNALQSGNSQESVTEQDSKDSTYSLSSTLTLSKADYEKHKVYACEVTHQGLSSPVTKSFNRGEC										no binding (tested: up to 30 µg/mL)
